{"source": "patent US20250041326A1", "about": "“THERAPEUTIC AGENT FOR REFRACTORY VIRAL INFECTIONS” (TOKYO METROPOLITAN INSTITUTE OF MEDICAL SCIENCE, priority 2021, published 2025)", "molecules": {"B1": {"name": "IFNλ1 protein: recombinant human IFN-lambda 1 (R&D systems) (protein, UniProt Q8IU54 20-200, looked up)", "Interferon lambda-1": "GPVPTSKPTTTGKGCHIGRFKSLSPQELASFKKARDALEESLKLKNWSCSSPVFPGNWDLRLLQVRERPVALEAELALTLKVLEAAAGPALEDVLDQPLHTLHHILSQLQACIQPQPTAGPRPRGRLHHWLHRLQEAPKKESAGCLEASVTFNLFRLLTRDLKYVADGNLCLRTSTHPEST"}}, "key": {"[1]": {"tested_on": "HBV", "experiment": "rcDNA and cccDNA in HBV-infected primary human hepatocytes treated with IFNλ1 protein", "type": "cell-based", "details": "primary human hepatocytes persistently infected with HBV, 15 days treatment", "description": "Primary human hepatocytes persistently infected with HBV were treated with IFNλ1 protein for 15 days, and rcDNA and cccDNA were quantified.\nPrimary human hepatocytes persistently infected with HBV for 22 days or longer (PhoenixBio Co., Ltd., Japan) were cultured in a medium containing recombinant human IFN-lambda 1 (R&D systems) with medium replacement every 5 days, and the cells were collected after 15 days.\nDNA in the cells were extracted by the sodium iodide method.\nThe cells were mixed with 200 μL of lysis buffer (10 mM EDTA, 500 mM 2-mercaptoethanol, 50 mM Tris-HCl, 75 mM KCl, 5% sarcosyl, 0.1 μg/μL protease K, pH 8.0), followed by heating at 55° C. for 20 minutes. After addition of 300 μL of a NaI solution (40 mM Tris-HCl, 20 mM EDTA, 7.6 M sodium iodide, coprecipitant), the mixture was allowed to stand at room temperature for 15 minutes. After addition of 600 μL of mixed alcohols (40% isopropanol, 60% 1-butanol), the mixture was cooled on ice for 15 minutes. The mixture was centrifuged at 4° C. at 15,000×g for 20 minutes to precipitate DNA. […]\nwere used, and an aliquot equivalent to 250 ng gDNA was measured according to the protocol of THUNDERBIRD Probe qPCR Mix (TOYOBO). […]\n(§1) were used, and the Plasmid-Safe ATP-dependent DNase-treated product (equivalent to 50 ng total DNA) was measured according to the protocol of THUNDERBIRD Probe qPCR Mix (TOYOBO). […]"}, "[2]": {"tested_on": "HBV", "experiment": "cccDNA in HepG2 cells stably expressing HBV", "type": "cell-based, human", "details": "5 days, IRF1 plasmid 0.5 μg/well, IFN-lambda 1 100 ng/mL, or supernatant every day", "description": "HepG2 cells made susceptible to HBV infection (HepG2-hNTCP-30 cells) were transfected with a 1.3-fold longer gene of HBV genotype C to prepare cells stably expressing HBV.\nThe primary human hepatocyte-derived human IRF1 gene (GenBank Accession No. NM_002198.3) was cloned into a pCI-neo Mammalian Expression Vector (Promega) to construct an IRF1 plasmid.\nUsing Lipofectamine 3000 (Invitrogen), the IRF1 plasmid (0.5 μg/well) was introduced by reverse transfection into HepG2 cells stably expressing HBV (2×10^5 cells/well, 48-well plate).\nAs an empty plasmid, a pCI-neo Mammalian Expression Vector was used.\nUsing the culture supernatant of the HepG2 cells stably expressing HBV (2×10^5 cells/well, 48-well plate) transfected with the IRF1 plasmid or the empty plasmid (0.5 μg/well), untransfected HepG2 cells stably expressing HBV (2×10^5 cells/well, 48-well plate) were treated every day for 5 days. Likewise, HepG2 cells stably expressing HBV were treated for 5 days with a medium containing recombinant human IFN-lambda 1 (100 ng/mL, R&D systems).\nDNA in the cells were extracted by the sodium iodide method. […]\nas §1"}}, "data": [{"molecule": "B1", "values": [{"measurement": "cccDNA levels", "setting": "[1]", "value": "reduced in a manner dependent on the amount"}, {"measurement": "rcDNA levels", "setting": "[1]", "value": "reduced in a manner dependent on the amount"}, {"measurement": "cccDNA", "setting": "[2]", "value": "not reduced"}]}]}
